“Also recorded” adds a separate entry of the source. Where two headings read alike, the source gives them in different places. No end group written: not given here.
How the values were obtained:
[1] = tested on: SP34; experiment: ELISA of SP34 binding to coated CD3ε1-27-Fc fusion proteins; conditions: FIG. 2A
Protocol: Examination of binding of SP34 to CD3ε1-27-Fc fusion proteins was conducted by ELISA. 100 μL of 2 μg/mL fusion protein was coated on 96 well microtiter plate (Nunc) at room temperature (RT) overnight. After blocking the wells with 3% milk-PBS (3% non-fat milk in 137 mM NaCl, 2.7 mM KCl, 10 mM Na2HPO4 1.8 mM KH2PO4) at RT for 1 hr and 6 washes with 0.05% PBST (0.05% Tween-20 in PBS), SP34 (5 μg/mL, 50 μL/well) was added to the wells as the first antibody and allowed for incubation at 37° C. for 1 hr. The wells were washed for 6 times with PBST after the incubation, and the second antibody horseradish peroxidase (HRP) labeled anti-Kappa light chain (Sigma, 1:6,000 dilution, 50 μL/well) was added and allowed for incubation at RT for 50 min. After 6 washes with PBST, 3,3′, 5,5′-Tetramethylbenzidine (TMB) was added to develop color, and 1M HCl was then added to stop the reaction. ELISA titer was read with a microtiter plate reader (Thermo Fisher) at 450 nm wavelength.

[2] = tested on: SP34; experiment: BLI binding of SP34 to CD3ε1-27 mutant fusion proteins; conditions: FIG. 2B
Protocol: (§1) Measurement of bindings between CD3ε1-27 mutants-SP34 fusion, or M-TCE, and […] was conducted as described above but with AHC sensors to capture M-TCE, and […] was used as the analyte.
In some embodiment, binding of SP34 to the second batch of 42 variants of […] mutant fusion proteins were tested by BLI with a ForteBio Red96 as described above.

[3] = tested on: SP34; experiment: Masking capability of potential masks of SP34 (ELISA, BLI); assay type: binding; conditions: mask and linker fused to SP34 VH and/or VL
Protocol: (§2) Binding of the 19 M-TCEs to both their antigens CEACAM5 and CD3δε was assessed with BLI using ForteBio Red96 as described above.

[4] = biological target: T1, MMP9 (Homo sapiens, UniProt P14780); experiment: Removal of masks by MMP9 digestion, SDS-PAGE; assay type: biochemical; conditions: 100 nM activated MMP9, 37° C., 3 hr
T1 construct: purchased Acrobiosystems
Protocol: MMP9 proenzyme (proMMP9), purchased from Acrobiosystems, was dissolved to 100 μg/mL in MMP9 digestion buffer (50 mM Tris, 10 mM CaCl2), 150 mM NaCl, pH 7.6). 4-aminophenylmercuric acetate (APMA) was added to a final concentration of 1 mM. The proMMP9-APMA mixture was incubated at 37° C. for 24 hr to activate proMMP9.
The selected M-TCEs, after adjusting to MMP9 digestion buffer, was mixed with activated MMP9 to a final concentration of 100 nM. The samples were further incubated at 37° C. for 3 hr to allow M-TCEs to be digested by MMP9.
The M-TCEs with 14 AA, 16 AA and 18 AA linker could be completely or nearly completely digested, as only the faster migrating bands could be seen. […] Too short linker would make the removal of the masks difficult, probably because the employed enzyme, MMP9 in this case, could not fully engage with its digestion site in the M-TCEs.

[5] = biological target: T2, CD3δε (Homo sapiens, UniProt P07766); experiment: BLI binding of M-TCEs (captured on AHC sensors) to CD3δε; design: purchased ACRO (Beijing, China)
Protocol: (§3) Bio-Layer Interferometry (BLI) technique was employed for the measurement of protein-protein interactions in this study. A Octet Red96 system and Streptavidin (SA) or AHC biosensors (ForteBio, Fremont) were utilized.
as §1, §2
Target sequence in this assay (P07766 22-126 limits assumed): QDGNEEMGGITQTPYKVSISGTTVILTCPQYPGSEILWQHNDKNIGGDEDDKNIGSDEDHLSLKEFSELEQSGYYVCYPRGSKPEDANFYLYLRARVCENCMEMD
Target sequence in this assay (P04234 22-105 partner limits assumed): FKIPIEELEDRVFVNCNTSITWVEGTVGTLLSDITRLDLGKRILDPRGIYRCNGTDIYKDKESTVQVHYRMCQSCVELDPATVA

[6] = tested on: HT29 cells; experiment: PBMC co-cultivation assay, M-TCE-induced killing of HT29 cells; assay type: cell-based, human; conditions: for EC50: HT29 + human PBMC, 72 hours, read-out: Efficacy (EC50); for tumor cell killing efficacy: digested vs undigested, in words; for Digested vs. masked: ratio of EC50 non-digested to MMP9-digested
Protocol: Five digested and undigested M-TCEs were tested for their tumor cell killing capability in the presence of human PBMC.
A total of 5×10^3 cells in RPMI1640 medium (supplemented with 10% FBS and 2 mM glutamine) of the target cell line (HT29) were seeded in 96-well plates (Day 0). A dilution series of respective antibodies was performed in assay media and added to target cells. On Day 0, a total of 5×10^4 PBMCs were added to each well, and the final reaction volume was adjusted to 200 μl. Percentage viability of target cell was measured by […]. LDH was measured after 72 hours using the Cell Counting Kit-8 (CK04, Dojindo, Japan) according to the manufacturer's recommendations. The results were analyzed as mean and standard deviation (SD) from triplicate wells and plotted as 4-parameter non-linear regression fittings using GraphPad Prism 9 software (GraphPad Software, San Diego, CA, USA).

[7] = biological target: T2, CD3δε; experiment: BLI (Octet Red96), SP34 on AHC biosensor, CD3δε as analyte
[8] = biological target: T3, CD3ε-p5 (human, biotinylation at the C-terminus); experiment: BLI, biotinylated peptide on SA biosensor, SP34 as analyte
T3 construct: also called 17 AA N-terminal CD3ε peptide
T3 peptide: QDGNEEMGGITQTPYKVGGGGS
Protocol: (§4) To measure the binding of SP34 to CD3ε peptides, the peptides were immobilized on the SA biosensor through SA-biotin interaction according the manufacturer's instruction. After running PBS with 0.01% Tween-20 buffer to stabilize baselines, the biosensors were dipped into solid black 96-well plates (Greiner Bio-One, Cat. #65520, Monroe, North Carolina, USA) containing SP34 in indicated concentrations. Association and dissociation were measured accordingly, and binding kinetics were calculated using ForteBio's Data Analysis 12.0 software.
(§5) BLI technology was employed to measure the affinity of the six peptides to SP34 with a ForteBio Red96. These peptides were immobilized on the SA Biosensor and their affinities were measured using SP34 as the analyte. The binding sensorgrams indicate that SP34 binds to all six peptides with very similar profiles (FIG. 1C). […] It is further hypothesized that a N-terminal CD3ε peptide […] can bind to SP34 as well.

[9] = biological target: T4, CD3ε-p2 (human); experiment: as above
T4 construct: also called 8 AA N-terminal CD3ε peptide
T4 peptide: QDGNEEMGGGGGS-biotin
Protocol: as §4, §5

[10] = biological target: T5, CD3ε-p6 (human, biotinylation at the C-terminus); experiment: as above
T5 construct: also called 20 AA N-terminal CD3ε peptide
T5 peptide: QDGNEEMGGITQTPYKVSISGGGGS
Protocol: as §4, §5

[11] = biological target: T6, CD3ε-p7 (human, biotinylation at the C-terminus); experiment: as above
T6 construct: also called 23 AA N-terminal CD3ε peptide
T6 peptide: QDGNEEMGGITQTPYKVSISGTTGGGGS
Protocol: as §4, §5

[12] = biological target: T7, CD3ε-p1 (human); experiment: as above
T7 construct: also called 5 AA N-terminal CD3ε peptide
T7 peptide: QDGNEGGGGS-biotin
Protocol: as §4, §5

[13] = biological target: T8, CD3ε-p3 (human); experiment: as above
T8 construct: also called 11 AA N-terminal CD3ε peptide
T8 peptide: QDGNEEMGGITGGGGS-biotin
Protocol: as §4, §5

[14] = biological target: T2, CD3δε; experiment: BLI affinity of SP34 (immobilized on AHC biosensor) to CD3δε as analyte; assay type: binding; design: purchased ACRO (Beijing, China)
Protocol: as §3
Target sequence in this assay (P07766 22-126 limits assumed): as the sequence (P07766 22-126 limits assumed) above
Target sequence in this assay (P04234 22-105 partner limits assumed): as the sequence (P04234 22-105 partner limits assumed) above
CD3δε was purchased from ACRO (Beijing, China) and used as the antigen for SP34 affinity measurement.
SP34 was immobilized on the AHC biosensor and its affinity to CD3δε was measured using the latter as the analyte. This approach was selected as it can avoid potential multivalent binding and give accurate affinity between SP34 and CD3δε.

T1 sequence (P14780 107-707 limits assumed): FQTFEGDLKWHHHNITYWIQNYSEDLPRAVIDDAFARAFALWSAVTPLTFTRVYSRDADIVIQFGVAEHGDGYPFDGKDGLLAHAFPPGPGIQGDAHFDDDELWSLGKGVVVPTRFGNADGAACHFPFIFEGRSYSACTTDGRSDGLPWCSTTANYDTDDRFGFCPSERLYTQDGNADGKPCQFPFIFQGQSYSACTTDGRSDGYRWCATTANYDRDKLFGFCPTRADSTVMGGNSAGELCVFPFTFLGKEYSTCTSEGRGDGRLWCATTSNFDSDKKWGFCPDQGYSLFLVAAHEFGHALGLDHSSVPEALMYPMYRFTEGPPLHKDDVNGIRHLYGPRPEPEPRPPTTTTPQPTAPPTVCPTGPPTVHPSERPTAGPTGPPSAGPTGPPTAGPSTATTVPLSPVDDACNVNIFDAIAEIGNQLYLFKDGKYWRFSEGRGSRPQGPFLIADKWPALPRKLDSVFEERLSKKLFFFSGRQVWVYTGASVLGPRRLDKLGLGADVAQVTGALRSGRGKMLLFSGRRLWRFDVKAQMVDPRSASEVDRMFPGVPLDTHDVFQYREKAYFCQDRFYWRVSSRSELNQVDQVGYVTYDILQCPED

Molecule: D2C: D2C mutant of the CD3ε1-27-Fc fusion protein
- binding of SP34 to fusion protein [1]: significant binding; also recorded: maintained binding

Molecule: D2E: D2E mutant of the CD3ε1-27-Fc fusion protein
- binding of SP34 to fusion protein [1]: significant binding; also recorded: maintained binding

Molecule: D2G: D2G mutant of the CD3ε1-27-Fc fusion protein
- binding of SP34 to fusion protein [1]: significant binding; also recorded: maintained binding

Molecule: D2N: D2N mutant of the CD3ε1-27-Fc fusion protein
- binding of SP34 to fusion protein [1]: significant binding; also recorded: maintained binding

Molecule: G3A: G3A mutant of the CD3ε1-27-Fc fusion protein
- binding of SP34 to fusion protein [1]: significant binding; also recorded: maintained binding

Molecule: G3R: G3R mutant of the CD3ε1-27-Fc fusion protein
- binding of SP34 to fusion protein [2]: maintained binding

Molecule: L2-G3R: M-TCE; QDRNEEGSPLGLGS-SP34VH, SEQ ID NO 43
- Masking Capability [3]: Yes
- digestion by MMP9 [4]: could not be digested
- binding to CD3δε ([5]; non-digested (masked), compared with non-masked TCE): lack of masking capability

Molecule: L4-D2E: M-TCE; QEGNEEGSGSPLGLGSGS-SP34VH, SEQ ID NO 27
- EC50 ([6]; MMP9-digested): 0.011 nM
- EC50 ([6]; Non-digested): 0.65 nM
- tumor cell killing efficacy [6]: higher efficacy in inducing tumor cell killing than their undigested counterparts
- Digested vs. masked [6]: 59×
- Masking Capability [3]: Yes
- digestion by MMP9 [4]: partially digested

Molecule: L4-G3A: M-TCE; QDANEEGSGSPLGLGSGS-SP34VH, SEQ ID NO 39
- EC50 ([6]; MMP9-digested): 0.012 nM
- EC50 ([6]; Non-digested): 1.72 nM
- efficacy lower before mask removal ([6]; before vs after MMP9 digestion): ~140 fold
- tumor cell killing efficacy [6]: could induce tumor cell killing both before and after MMP9 digestion
- Digested vs. masked [6]: 144×
- EC50 of MMP9-digested M-TCE relative to unmasked TCE ([6]; vs SP34-CEA): approximately 10 fold
- Masking Capability [3]: Yes
- digestion by MMP9 [4]: partially digested
- binding to CD3δε ([5]; after MMP9 digestion): largely restored the binding

Molecule: Q1C: Q1C mutant of the CD3ε1-27-Fc fusion protein
- binding of SP34 to fusion protein [2]: maintained binding

B1: SP34 chimeric antibody (antibody, V domains shown)
VH: EVKLLESGGGLVQPKGSLKLSCAASGFTFNTYAMNWVRQAPGKGLEWVARIRSKYNNYATYYADSVKDRFTISRDDSQSILYLQMNNLKTEDTAMYYCVRHGNFGNSYVSWFAYWGQGTLVTVSS
VL: QAVVTQESALTTSPGETVTLTCRSSTGAVTTSNYANWVQEKPDHLFTGLIGGTNKRAPGVPARFSGSLIGDKAALTITGAQTEDEAIYFCALWYSNLWVFGGGTKVEIK
notes: VH and VL fused to the constant regions of human IgG1
- Kd [7]: 5.8 nM
- koff [7]: 0.0032 s⁻¹
- kon [7]: 550000 M⁻¹ s⁻¹
- Kd [8]: 1.8 nM
- koff [8]: 9.8e-05 s⁻¹
- kon [8]: 54000 M⁻¹ s⁻¹
- Kd [9]: 3.6 nM
- koff [9]: 0.00024 s⁻¹
- kon [9]: 65000 M⁻¹ s⁻¹
- Kd [10]: 3.5 nM
- koff [10]: 0.00016 s⁻¹
- kon [10]: 46000 M⁻¹ s⁻¹
- Kd [11]: 1.3 nM
- koff [11]: 0.00013 s⁻¹
- kon [11]: 100000 M⁻¹ s⁻¹
- Kd [12]: 0.99 nM
- koff [12]: 0.00016 s⁻¹
- kon [12]: 160000 M⁻¹ s⁻¹
- Kd [13]: 2 nM
- koff [13]: 0.00011 s⁻¹
- kon [13]: 56000 M⁻¹ s⁻¹

B2: SP34: anti-CD3 antibody; VH and VL (SEQ ID NOs 1, 2) fused to human IgG1 constant regions, chimeric antibody (antibody, V domains shown)
VH: EVKLLESGGGLVQPKGSLKLSCAASGFTFNTYAMNWVRQAPGKGLEWVARIRSKYNNYATYYADSVKDRFTISRDDSQSILYLQMNNLKTEDTAMYYCVRHGNFGNSYVSWFAYWGQGTLVTVSS
VL: QAVVTQESALTTSPGETVTLTCRSSTGAVTTSNYANWVQEKPDHLFTGLIGGTNKRAPGVPARFSGSLIGDKAALTITGAQTEDEAIYFCALWYSNLWVFGGGTKVEIK
modifications: human IgG1 constant regions; VH of anti-CD3 antibody SP34; VL of anti-CD3 antibody SP34
- ka ([14]; SP34 immobilized, CD3δε 9.4-150 nM as analyte): 550000 M⁻¹ s⁻¹
- kd ([14]; SP34 immobilized, CD3δε as analyte): 0.0032 s⁻¹
- Kd ([14]; monovalent binding of SP34 to CD3δε): 5.8 nM
